Laboratory results from patent US8058228B2, “Leptin peptide antagonists” (Boston Biomedical Research Institute, priority 2004, dated 2011).

Molecular target: T1, OB-R (Homo sapiens, UniProt P48357)
T1 construct: After confirming via Western that the primary EEC and ESC and endometrial cell lines utilized herein had OB-R; endogenous in cells; host or cells: primary human EEC and ESC; Ishikawa (ECACC 9832301) and HES cell lines
T1 sequence (P48357 22-1165): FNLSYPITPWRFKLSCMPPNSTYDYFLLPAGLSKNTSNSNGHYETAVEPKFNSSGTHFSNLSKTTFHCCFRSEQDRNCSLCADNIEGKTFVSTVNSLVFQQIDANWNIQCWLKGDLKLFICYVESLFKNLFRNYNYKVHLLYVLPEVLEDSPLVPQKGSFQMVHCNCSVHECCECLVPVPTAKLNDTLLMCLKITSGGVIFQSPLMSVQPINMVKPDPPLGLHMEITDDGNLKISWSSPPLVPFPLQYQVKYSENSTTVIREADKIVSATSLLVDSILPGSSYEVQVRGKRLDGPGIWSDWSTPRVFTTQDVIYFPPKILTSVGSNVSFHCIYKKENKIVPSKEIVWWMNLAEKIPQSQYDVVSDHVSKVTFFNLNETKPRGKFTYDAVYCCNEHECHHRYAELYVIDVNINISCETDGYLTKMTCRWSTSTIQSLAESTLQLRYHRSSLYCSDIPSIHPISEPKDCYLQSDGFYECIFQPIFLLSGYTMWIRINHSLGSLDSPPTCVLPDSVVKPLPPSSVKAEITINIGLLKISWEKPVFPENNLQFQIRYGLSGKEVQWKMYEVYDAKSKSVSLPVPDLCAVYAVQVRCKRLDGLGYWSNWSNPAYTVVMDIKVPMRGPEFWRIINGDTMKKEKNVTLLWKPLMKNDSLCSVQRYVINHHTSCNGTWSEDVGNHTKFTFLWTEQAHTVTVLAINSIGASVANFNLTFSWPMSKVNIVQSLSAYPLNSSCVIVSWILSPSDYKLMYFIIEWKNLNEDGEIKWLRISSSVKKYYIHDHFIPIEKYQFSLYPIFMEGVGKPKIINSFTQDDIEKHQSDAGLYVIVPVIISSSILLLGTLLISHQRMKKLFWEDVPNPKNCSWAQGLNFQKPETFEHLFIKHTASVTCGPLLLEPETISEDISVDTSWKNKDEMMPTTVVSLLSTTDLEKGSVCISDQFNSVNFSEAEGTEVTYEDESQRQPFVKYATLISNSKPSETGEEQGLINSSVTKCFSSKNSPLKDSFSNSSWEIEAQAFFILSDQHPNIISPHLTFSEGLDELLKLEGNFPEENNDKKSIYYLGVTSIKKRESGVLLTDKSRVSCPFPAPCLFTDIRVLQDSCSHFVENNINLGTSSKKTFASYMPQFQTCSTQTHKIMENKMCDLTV
Test: LIF-R levels in human endometrial cells (immunoprecipitation/Western blot)
Type: cell-based
Settings: for effect on leptin-induced increase of LIF-R levels: leptin 62 nM, peptide 300 nM, 24 h; for leptin-induced expression of LIF-R: leptin 3-62 nM
Experimental: Primary human endometrial cells (ESC and EEC) were cultured for 5-9 days in DMEM-F12 medium containing 5% fetal bovine serum (FBS), 5 μg/ml insulin, 1% amphopthericin B, 100 μg/ml streptomycin and 100 U/ml penicillin until they were 80% confluent. Two types of endometrial epithelial cell lines, HES (originally derived from a benign proliferative endometrium) and Ishikawa (human endometrial epithelial adenocarcinoma, ECACC 9832301, Wiltshire, England) were cultured under the same conditions described above. The cells were washed twice with 100 mM phosphate saline buffer (PBS), pH 7.2 and cultured for additional 2 days in the same medium but without FBS (basal medium). Cells were washed as described before and cultured in basal medium containing leptin (0, 3, 10 or 62 nM) or IL-1β (0.6, 3 and 10 nM).
The anti-OB-R antibody (10 and 20 μg/ml) and LPA-2, a specific inhibitor of OB-R (3, 120, 300 nM or 30 μM) were used to assess whether leptin-induced effects were regulated primarily by the OB-R. Non-specific species-matched IgGs to the OB-R antibody and a scrambled version of LPA-2 (LPA-2Sc) served as negative controls (Gonzalez and Leavis, Endocrine 21: 185-195 (2003)). Inhibitors of IL-1R were used (monoclonal antibody anti-IL-1R tl and IL-1Ra) to assess whether leptin activated IL-1 induced signaling pathways or just activated similar components responsible for LIF/LIF-R expression. Treatment with the cytokine, inhibitor or the two combined was implemented for 5, 15, 30 and 60 min, and 24 and 48 h. The cells were prepared for Western blot analysis. The conditioned media was collected, lyophilized and stored at −80° C. until analysis for LIF, IL-1β and IL-1Ra by ELISA could be performed. Duplicate wells were run for each treatment and the experiments repeated at least three times with different cell preparations.
Endometrial cells were washed with ice-cold PBS and lysed by homogenization on ice with lysis buffer A [[…] Tris, pH 7.4, containing 137 nM NaCl, 2 mM EDTA, 10% glycerol, 50 mM β-glycerophosphate, 1% Nonidet P-40 and a mixture of proteases and phosphatase inhibitors composed of 100 μM antipain, 0.1 mg/ml trypsin inhibitor, protease inhibitor cocktail 1:50 (Sigma), 50 nM NaF, 2 mM phenyl-methylsulfonyl fluoride, and 2 mM sodium orthovanadate]. Cellular lysates were centrifuged at 2400 g at 4° C. for 10 min. For nuclear lysates the cells were scraped from the culture plates and homogenized with lysis buffer B (10 nM Tris, pH 7.4, 0.25 M sucrose, 0.1 mM EDTA containing the same mixture of protease and phosphatase inhibitors as buffer A). Protein concentrations were determined using the Bradford protein assay (BioRad Laboratories Inc., Hercules, Calif.).
30 μg of protein from nuclear or cellular lysates were incubated in ependorf tubes containing 0.5 μg of primary antibodies (anti-LIF-R, OB-R, STAT3 and p-STAT3 diluted in buffer A) for 2 h at 4° C. under constant stirring. The immuno-complexes were incubated with 20 μl of Protein G-Agarose (Amersham Pharmacia Biotech) diluted 1:1 with buffer A for a 2 additional hours under constant stirring. The beads were centrifuged for 1 min at 1000 g and washed with buffer A containing 0.5 M NaCl followed by a final wash with buffer A.
Cellular lysates and their immunoprecipitates containing 10-30 μg of protein plus Laemmli buffer (1:1) were incubated at 95° C. for 5 min. Electrophoresis was performed at 220 V for 5 min followed by 130 V for 45 min (BioRad, electrophoresis apparatus) on 7.5% (for STAT3, p-STAT3, LIF-R and IL-1R tl) and 10% (for OB-R) SDS-PAGE gels. Nuclear lysates were also used to detect p-STAT3. Electroblotting onto 0.2 μm nitrocellulose membranes was performed at 22 V overnight at 4° C. in 48 nM Tris-39 nM glycine buffer containing 0.037% SDS and 20% methanol. […]

Substance	effect on leptin-induced increase of LIF-R levels (Ishikawa cells)	leptin-induced expression of LIF-R (HES cells)	leptin-induced expression of LIF-R (Ishikawa cells)	leptin-induced expression of LIF-R (primary EEC)	leptin-induced expression of LIF-R (primary ESC)
SRNVIQISNDLENLRDLLHVLAFSKS [LPA-2, 26 amino acid peptide, residues 70-95 of helix III of the human leptin molecule; leptin peptide antagonist]	reduced the leptin-induced increase	–	–	–	–
leptin: human recombinant leptin (R&D Systems), OB-R ligand used as stimulus	–	1.3-2 fold	1.5-3 fold	1.7-8 fold	1.4-3.2 fold
VAEVLNRSDLIQRISFSLDLNNSKLH [LPA-2Sc, scrambled version of LPA-2, negative control, reference compound]	had no effect on LIF-R levels	–	–	–	–
